Measurements: PMC9482650, “Quantitative fragmentomics allow affinity mapping of interactomes” (Nature Communications, 2022)
Each block holds one binder with its values, some of them ahead of it.

What was measured:
Assay in all cases: holdup assay
Design in all cases: key: below the threshold = too weak to quantify, mostly under pKd 3.1 to 4
NHERF3_4, Q5T2W1 = target: T1, NHERF3_4, Q5T2W1
T1 sequence (Q5T2W1 373-468, limits assumed, looked up): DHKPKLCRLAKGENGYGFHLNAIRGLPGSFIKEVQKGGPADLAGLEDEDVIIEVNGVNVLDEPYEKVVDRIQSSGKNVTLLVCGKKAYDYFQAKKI

DLG4_1, P78352 = target: DLG4_1, P78352
Sequence of DLG4_1, P78352 (P78352 62-152): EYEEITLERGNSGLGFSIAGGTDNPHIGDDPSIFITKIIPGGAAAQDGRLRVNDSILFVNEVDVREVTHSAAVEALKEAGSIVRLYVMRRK

NHERF4_2, Q86UT5 = target: NHERF4_2, Q86UT5
Sequence of NHERF4_2, Q86UT5 (Q86UT5 220-308): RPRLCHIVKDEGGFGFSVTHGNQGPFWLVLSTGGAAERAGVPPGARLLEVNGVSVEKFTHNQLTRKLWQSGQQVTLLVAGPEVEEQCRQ

PARD3B_1, Q8TEW8 = target: T2, PARD3B_1, Q8TEW8
T2 sequence (Q8TEW8 196-299, limits assumed, looked up): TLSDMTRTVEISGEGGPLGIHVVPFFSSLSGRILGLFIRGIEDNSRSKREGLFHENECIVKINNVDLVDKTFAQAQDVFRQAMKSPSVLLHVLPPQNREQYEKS

DLG3_2, Q92796 = target: T3, DLG3_2, Q92796
T3 sequence (Q92796 221-321, limits assumed, looked up): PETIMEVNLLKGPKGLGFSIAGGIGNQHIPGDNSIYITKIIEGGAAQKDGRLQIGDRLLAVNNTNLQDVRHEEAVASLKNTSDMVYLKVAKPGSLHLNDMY

IL16_3, Q14005 = target: IL16_3, Q14005
Sequence of IL16_3, Q14005 (Q14005 1107-1207): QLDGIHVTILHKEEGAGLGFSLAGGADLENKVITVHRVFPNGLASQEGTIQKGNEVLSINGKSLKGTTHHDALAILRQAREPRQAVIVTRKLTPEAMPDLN

LIN7A, O14910 = target: T4, LIN7A, O14910
T4 sequence (O14910 103-200, limits assumed, looked up): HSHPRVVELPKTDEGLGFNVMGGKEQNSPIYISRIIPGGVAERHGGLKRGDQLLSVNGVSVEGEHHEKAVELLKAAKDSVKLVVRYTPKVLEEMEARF

FRMPD4, Q14CM0 = target: FRMPD4, Q14CM0
Sequence of FRMPD4, Q14CM0 (Q14CM0 67-160): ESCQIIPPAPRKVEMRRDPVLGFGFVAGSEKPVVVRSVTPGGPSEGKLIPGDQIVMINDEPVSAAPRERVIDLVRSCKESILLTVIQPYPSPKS

LNX1_1, Q8TBB1 = target: LNX1_1, Q8TBB1
Sequence of LNX1_1, Q8TBB1 (Q8TBB1 261-371): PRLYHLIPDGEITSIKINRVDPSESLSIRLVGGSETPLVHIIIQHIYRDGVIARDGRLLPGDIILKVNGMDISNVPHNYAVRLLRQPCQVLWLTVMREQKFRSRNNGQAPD

HTRA1, Q92743 = target: HTRA1, Q92743
Sequence of HTRA1, Q92743 (Q92743 360-477): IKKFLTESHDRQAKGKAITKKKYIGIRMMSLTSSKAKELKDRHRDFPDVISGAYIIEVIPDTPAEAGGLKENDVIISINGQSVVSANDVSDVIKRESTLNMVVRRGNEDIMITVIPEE

MAGI1_2, Q96QZ7 = target: MAGI1_2, Q96QZ7
Sequence of MAGI1_2, Q96QZ7 (Q96QZ7 456-580): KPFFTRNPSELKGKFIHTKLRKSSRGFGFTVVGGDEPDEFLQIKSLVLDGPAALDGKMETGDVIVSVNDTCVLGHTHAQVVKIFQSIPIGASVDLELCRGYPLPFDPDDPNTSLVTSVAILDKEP

HTRA4, P83105 = target: T5, HTRA4, P83105
T5 sequence (P83105 378-476, limits assumed, looked up): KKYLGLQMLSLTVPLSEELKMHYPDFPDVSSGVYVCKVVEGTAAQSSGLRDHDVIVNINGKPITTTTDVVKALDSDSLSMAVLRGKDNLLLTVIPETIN

MAST1, Q9Y2H9 = target: MAST1, Q9Y2H9
Sequence of MAST1, Q9Y2H9 (Q9Y2H9 962-1065): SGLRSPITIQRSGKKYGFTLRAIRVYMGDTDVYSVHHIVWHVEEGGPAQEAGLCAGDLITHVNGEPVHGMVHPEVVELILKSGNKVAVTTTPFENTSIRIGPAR

SCRIB_3, Q14160 = target: SCRIB_3, Q14160
Sequence of SCRIB_3, Q14160 (Q14160 999-1103): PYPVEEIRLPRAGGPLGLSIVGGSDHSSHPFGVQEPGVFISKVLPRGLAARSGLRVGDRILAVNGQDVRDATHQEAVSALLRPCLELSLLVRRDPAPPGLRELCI

Inadl_3, Q8NI35 = target: Inadl_3, Q8NI35
Sequence of Inadl_3, Q8NI35 (Q8NI35 359-469): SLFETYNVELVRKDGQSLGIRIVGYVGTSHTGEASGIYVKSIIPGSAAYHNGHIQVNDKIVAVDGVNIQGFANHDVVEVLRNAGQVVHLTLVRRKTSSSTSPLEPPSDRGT

SNTG2, Q9NY99 = target: T6, SNTG2, Q9NY99
T6 sequence (Q9NY99 68-166, limits assumed, looked up): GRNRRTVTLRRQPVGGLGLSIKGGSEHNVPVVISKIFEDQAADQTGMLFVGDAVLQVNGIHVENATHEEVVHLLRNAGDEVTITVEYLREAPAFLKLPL

RAPGEF6, Q8TEU7 = target: T7, RAPGEF6, Q8TEU7
T7 sequence (Q8TEU7 525-625, limits assumed, looked up): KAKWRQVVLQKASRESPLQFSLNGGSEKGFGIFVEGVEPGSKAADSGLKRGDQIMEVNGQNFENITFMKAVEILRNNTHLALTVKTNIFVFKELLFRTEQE

MPP7, Q5T2T1 = target: T8, MPP7, Q5T2T1
T8 sequence (Q5T2T1 134-230, limits assumed, looked up): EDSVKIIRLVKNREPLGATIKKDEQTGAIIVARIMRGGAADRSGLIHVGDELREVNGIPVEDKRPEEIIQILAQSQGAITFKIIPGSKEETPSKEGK

NHERF2_2, Q15599 = target: NHERF2_2, Q15599
Sequence of NHERF2_2, Q15599 (Q15599 142-238): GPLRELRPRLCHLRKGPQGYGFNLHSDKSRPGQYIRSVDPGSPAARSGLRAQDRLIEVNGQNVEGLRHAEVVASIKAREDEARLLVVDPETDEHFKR

GRIP2_7, Q9C0E4 = target: GRIP2_7, Q9C0E4
Sequence of GRIP2_7, Q9C0E4 (Q9C0E4 934-1023): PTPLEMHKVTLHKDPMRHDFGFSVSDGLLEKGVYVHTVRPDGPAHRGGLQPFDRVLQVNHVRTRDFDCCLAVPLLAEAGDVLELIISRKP

MAGI2_5, Q86UL8 = target: MAGI2_5, Q86UL8
Sequence of MAGI2_5, Q86UL8 (Q86UL8 915-1017): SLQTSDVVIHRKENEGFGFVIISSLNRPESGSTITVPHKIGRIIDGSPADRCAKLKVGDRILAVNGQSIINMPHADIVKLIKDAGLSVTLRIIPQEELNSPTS

PDZRN3_1, Q9UPQ7 = target: T9, PDZRN3_1, Q9UPQ7
T9 sequence (Q9UPQ7 244-349, limits assumed, looked up): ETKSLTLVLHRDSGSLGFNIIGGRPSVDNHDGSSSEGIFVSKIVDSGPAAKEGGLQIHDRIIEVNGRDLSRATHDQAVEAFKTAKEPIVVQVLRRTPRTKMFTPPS

MAGI2_3, Q86UL8 = target: MAGI2_3, Q86UL8
Sequence of MAGI2_3, Q86UL8 (Q86UL8 600-682): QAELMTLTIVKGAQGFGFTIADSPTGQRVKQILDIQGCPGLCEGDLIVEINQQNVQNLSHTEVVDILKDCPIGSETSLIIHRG

LIMK2, P53671 = target: LIMK2, P53671
Sequence of LIMK2, P53671 (P53671 143-248): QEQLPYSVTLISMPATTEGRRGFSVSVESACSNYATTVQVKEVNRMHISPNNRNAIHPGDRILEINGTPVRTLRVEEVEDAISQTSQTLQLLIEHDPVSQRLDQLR

SNTG1, Q9NSN8 = target: T10, SNTG1, Q9NSN8
T10 sequence (Q9NSN8 52-150, limits assumed, looked up): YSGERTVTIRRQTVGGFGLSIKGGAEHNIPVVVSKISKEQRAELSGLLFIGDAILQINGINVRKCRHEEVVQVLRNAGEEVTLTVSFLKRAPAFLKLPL

PICK1, Q9NRD5 = target: PICK1, Q9NRD5
Sequence of PICK1, Q9NRD5 (Q9NRD5 17-115): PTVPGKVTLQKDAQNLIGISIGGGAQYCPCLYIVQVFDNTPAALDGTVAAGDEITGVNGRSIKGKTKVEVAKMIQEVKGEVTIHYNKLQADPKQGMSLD

Inadl_9, Q8NI35 = target: Inadl_9, Q8NI35
Sequence of Inadl_9, Q8NI35 (Q8NI35 1530-1615): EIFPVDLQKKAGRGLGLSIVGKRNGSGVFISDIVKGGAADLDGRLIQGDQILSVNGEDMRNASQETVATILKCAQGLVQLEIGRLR

[1] = plain residues with an end cap or a label only (N-terminal biotin on a linker: ahx)
[2] = plain residues with an end cap or a label only (N-terminal biotin on a linker: ttds)

pKd (NHERF3_4, Q5T2W1; [1]): below the threshold
pKd (DLG4_1, P78352; [1]): 4.22
pKd (NHERF4_2, Q86UT5; [1]): below the threshold
pKd (PARD3B_1, Q8TEW8; [1]): below the threshold
pKd (DLG3_2, Q92796; [1]): 3.92
pKd (IL16_3, Q14005; [1]): below the threshold
pKd (LIN7A, O14910; [1]): below the threshold
pKd (FRMPD4, Q14CM0; [1]): below the threshold
pKd (LNX1_1, Q8TBB1; [1]): 4.21
pKd (HTRA1, Q92743; [1]): 4.43
pKd (MAGI1_2, Q96QZ7; [1]): 4.03
pKd (HTRA4, P83105; [1]): 3.97
pKd (MAST1, Q9Y2H9; [1]): 3.65
pKd (SCRIB_3, Q14160; [1]): 4.18
pKd (Inadl_3, Q8NI35; [1]): below the threshold
pKd (SNTG2, Q9NY99; [1]): below the threshold
pKd (RAPGEF6, Q8TEU7; [1]): below the threshold
pKd (MPP7, Q5T2T1; [1]): below the threshold
pKd (NHERF2_2, Q15599; [1]): below the threshold
pKd (GRIP2_7, Q9C0E4; [1]): 3.72
pKd (MAGI2_5, Q86UL8; [1]): 4.37
pKd (PDZRN3_1, Q9UPQ7; [1]): below the threshold
pKd (MAGI2_3, Q86UL8; [1]): below the threshold
pKd (LIMK2, P53671; [1]): below the threshold
pKd (SNTG1, Q9NSN8; [1]): 3.55
pKd (PICK1, Q9NRD5; [1]): below the threshold
pKd (Inadl_9, Q8NI35; [1]): 4.42
Binder: KTSAHHATFV [RGS12, O14924]

pKd (NHERF3_4, Q5T2W1; [1]): below the threshold
pKd (DLG4_1, P78352; [1]): below the threshold
pKd (NHERF4_2, Q86UT5; [1]): below the threshold
pKd (PARD3B_1, Q8TEW8; [1]): below the threshold
pKd (DLG3_2, Q92796; [1]): below the threshold
pKd (IL16_3, Q14005; [1]): below the threshold
pKd (LIN7A, O14910; [1]): below the threshold
pKd (FRMPD4, Q14CM0; [1]): below the threshold
pKd (LNX1_1, Q8TBB1; [1]): below the threshold
pKd (HTRA1, Q92743; [1]): below the threshold
pKd (MAGI1_2, Q96QZ7; [1]): below the threshold
pKd (HTRA4, P83105; [1]): below the threshold
pKd (MAST1, Q9Y2H9; [1]): 3.94
pKd (SCRIB_3, Q14160; [1]): below the threshold
pKd (Inadl_3, Q8NI35; [1]): below the threshold
pKd (SNTG2, Q9NY99; [1]): below the threshold
pKd (RAPGEF6, Q8TEU7; [1]): below the threshold
pKd (MPP7, Q5T2T1; [1]): below the threshold
pKd (NHERF2_2, Q15599; [1]): 4.25
pKd (GRIP2_7, Q9C0E4; [1]): below the threshold
pKd (MAGI2_5, Q86UL8; [1]): below the threshold
pKd (PDZRN3_1, Q9UPQ7; [1]): below the threshold
pKd (MAGI2_3, Q86UL8; [1]): below the threshold
pKd (LIMK2, P53671; [1]): below the threshold
pKd (SNTG1, Q9NSN8; [1]): below the threshold
pKd (PICK1, Q9NRD5; [1]): below the threshold
pKd (Inadl_9, Q8NI35; [1]): below the threshold
Binder: SSSNSEDTEM [NHERF3, Q5T2W1]

Continued, binder first:

Binder: IQREDQETAV [DGKZ, Q13574]
pKd (NHERF3_4, Q5T2W1; [2]): below the threshold
pKd (DLG4_1, P78352; [2]): 4.72
pKd (NHERF4_2, Q86UT5; [2]): below the threshold
pKd (PARD3B_1, Q8TEW8; [2]): below the threshold
pKd (DLG3_2, Q92796; [2]): 4.88
pKd (IL16_3, Q14005; [2]): below the threshold
pKd (LIN7A, O14910; [2]): below the threshold
pKd (FRMPD4, Q14CM0; [2]): 3.93
pKd (LNX1_1, Q8TBB1; [2]): below the threshold
pKd (HTRA1, Q92743; [2]): 3.96
pKd (MAGI1_2, Q96QZ7; [2]): below the threshold
pKd (HTRA4, P83105; [2]): below the threshold
pKd (MAST1, Q9Y2H9; [2]): 4.57
pKd (SCRIB_3, Q14160; [2]): 5.05
pKd (Inadl_3, Q8NI35; [2]): below the threshold
pKd (SNTG2, Q9NY99; [2]): 4.95
pKd (RAPGEF6, Q8TEU7; [2]): below the threshold
pKd (MPP7, Q5T2T1; [2]): below the threshold
pKd (NHERF2_2, Q15599; [2]): 4.01
pKd (GRIP2_7, Q9C0E4; [2]): below the threshold
pKd (MAGI2_5, Q86UL8; [2]): 4.69
pKd (PDZRN3_1, Q9UPQ7; [2]): 4.91
pKd (MAGI2_3, Q86UL8; [2]): 4.45
pKd (LIMK2, P53671; [2]): below the threshold
pKd (SNTG1, Q9NSN8; [2]): 5.4
pKd (PICK1, Q9NRD5; [2]): below the threshold
pKd (Inadl_9, Q8NI35; [2]): below the threshold

Binder: SPLHSLETSL [ATP2B1, P20020]
pKd (NHERF3_4, Q5T2W1; [2]): 3.94
pKd (DLG4_1, P78352; [2]): 4.06
pKd (NHERF4_2, Q86UT5; [2]): below the threshold
pKd (PARD3B_1, Q8TEW8; [2]): 4.02
pKd (DLG3_2, Q92796; [2]): 4.35
pKd (IL16_3, Q14005; [2]): below the threshold
pKd (LIN7A, O14910; [2]): below the threshold
pKd (FRMPD4, Q14CM0; [2]): 4.45
pKd (LNX1_1, Q8TBB1; [2]): below the threshold
pKd (HTRA1, Q92743; [2]): 3.75
pKd (MAGI1_2, Q96QZ7; [2]): 3.78
pKd (HTRA4, P83105; [2]): 3.48
pKd (MAST1, Q9Y2H9; [2]): 4.92
pKd (SCRIB_3, Q14160; [2]): 5.54
pKd (Inadl_3, Q8NI35; [2]): 3.51
pKd (SNTG2, Q9NY99; [2]): 4.66
pKd (RAPGEF6, Q8TEU7; [2]): below the threshold
pKd (MPP7, Q5T2T1; [2]): below the threshold
pKd (NHERF2_2, Q15599; [2]): 4.87
pKd (GRIP2_7, Q9C0E4; [2]): below the threshold
pKd (MAGI2_5, Q86UL8; [2]): 4.31
pKd (PDZRN3_1, Q9UPQ7; [2]): 5.09
pKd (MAGI2_3, Q86UL8; [2]): 3.5
pKd (LIMK2, P53671; [2]): below the threshold
pKd (SNTG1, Q9NSN8; [2]): 4.36
pKd (PICK1, Q9NRD5; [2]): below the threshold
pKd (Inadl_9, Q8NI35; [2]): below the threshold
